The record followed here is patent US20070099283A1 (published 2007).

The target in the test is T1, mature recombinant proteinase K from Tritirachium album Limber (processed, natured from pro-proteinase K) (Tritirachium album Limber, UniProt P06873 106-384).
T1 construct: Made in E. coli as pro-proteinase K inclusion bodies, natured in vitro and cleaved autocatalytically; also called processed recombinant proteinase K; native proteinase K
Briefly: chromatographic methods and SDS-PAGE of natured pro-proteinase K.

T1 sequence (P06873 106-384): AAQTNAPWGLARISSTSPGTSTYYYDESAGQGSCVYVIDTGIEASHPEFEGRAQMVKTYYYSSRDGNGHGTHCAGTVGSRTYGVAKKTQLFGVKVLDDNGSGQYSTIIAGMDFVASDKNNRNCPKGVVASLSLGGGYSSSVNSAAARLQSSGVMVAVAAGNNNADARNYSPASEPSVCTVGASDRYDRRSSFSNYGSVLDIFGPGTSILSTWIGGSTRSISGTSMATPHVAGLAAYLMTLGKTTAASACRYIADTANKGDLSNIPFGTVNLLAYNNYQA

B1: propeptide (prosequence) of proteinase K from Tritirachium album Limber (peptide)
chain: APAVEQRSEAAPLIEARGEMVANKYIVKFKEGSALSALDAAMEKISGKPDHVYKNVFSGFAATLDENMVRVLRAHPDVEYIEQDAVVTIN
As to B1, the binding result is listed as “binds”.
